The supplement of paper PMC6757056
± gives the standard deviation of the averaged measurements.

B1: library; a variant is named by its letters at N, in order (parent)
chain: GCUGUCACCGAGAAACUGUGAAGUAUAUCUUAAACCUGGGCACUUAAAAGAUAUAUGGAGUUAGUAGUGCAACCUGCUCGGUCUGAUGAGUCCNNNNNNGGACGAAACAGC

How the values were obtained:
cyclic di-GMP [1] = variants of: B1; test: FACS-Seq fitted mean relative fluorescence mCherry/BFP without ligand (log10 relative fluorescence); HEK293T; ligand: cyclic di-GMP (c-di-GMP-II aptamer); higher = higher reporter protein expression; settings: ligand present: no
In short: (§1)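 Enriched HEK293T cells carrying, by lentivirus, an mCherry reporter with the ribozyme switch and an EF1α-BFP marker spent 48 h with or without ligand and were sorted into 6 bins by mCherry/BFP. MiSeq sequencing of PCR-amplified bin genomic DNA gave bin counts. Fluorescence was calculated as the fitted normal mean of those counts. Counts were binned on log10(mCherry/BFP), and means were scaled to five spiked-in control ribozymes.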

cyclic di-GMP [2] = variants of: B1; test: normalized RNA/DNA level without ligand (relative to sTRSVctl = 100) (log10 (% of sTRSVctl)); HEK293T; ligand: cyclic di-GMP (c-di-GMP-II aptamer); higher = less ribozyme self-cleavage, higher mRNA level; settings: reporter: mCherry (pCS4076), ligand present: no
In short: (§2)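 HEK293T cells received ligand, where used, 1 h before being transfected with 4 µg per 6-well well of library plasmids encoding reporter-linked ribozyme switches. After 72 h, RNA was extracted with EDTA and sequenced. RNA level was derived from RNA reads per DNA read, normalized to a spiked-in non-cleaving sequence or the top sequences, then scaled and log-transformed. Values were ×100 then log10, the top set was 25 sequences, and the minimum was 100 DNA reads.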

cyclic di-GMP [3] = variants of: B1; test: FACS-Seq fitted mean relative fluorescence mCherry/BFP with ligand (log10 relative fluorescence); HEK293T; ligand: cyclic di-GMP (c-di-GMP-II aptamer); ligand concentration (+) FACS-Seq: 1 mM; higher = higher reporter protein expression; settings: ligand present: yes
In short: as §1

cyclic di-GMP [4] = variants of: B1; test: normalized RNA/DNA level with ligand (relative to sTRSVctl = 100) (log10 (% of sTRSVctl)); HEK293T; ligand: cyclic di-GMP (c-di-GMP-II aptamer); ligand concentration (+) RNA-Seq: 1 mM; higher = less ribozyme self-cleavage, higher mRNA level; settings: reporter: mCherry (pCS4076), ligand present: yes
In short: as §2

Variant	FACS-Seq fitted mean (log10) (cyclic di-GMP [1])	normalized RNA/DNA level without ligand (log10) (cyclic di-GMP [2])	FACS-Seq fitted mean (log10) (cyclic di-GMP [3])	normalized RNA/DNA level with ligand (log10) (cyclic di-GMP [4])
AUAAAG	-0.485 ± 0.024	1.56 ± 0.038	-0.249 ± 0.071	1.73 ± 0.14
CGGCAC	-0.036 ± 0.21	1.64 ± 0.038	0.073 ± 0.042	1.8 ± 0.12
CGGCAA	-0.818 ± 0.011	1.28 ± 0.077	-0.675 ± 0.04	1.47 ± 0.097
CGGCAU	-0.564 ± 0.044	1.49 ± 0.073	-0.2893 ± 0.0014	1.64 ± 0.13
CGGACG	-1.09 ± 0.056	1.77 ± 0.072	-1.17 ± 0.31	1.87 ± 0.11
CGGACU	-0.791 ± 0.13	1.48 ± 0.14	-0.611 ± 0.11	1.64 ± 0.11
CGGACA	-0.421 ± 0.083	1.4 ± 0.13	-0.265 ± 0.047	1.58 ± 0.085
UGGUCG	-0.511 ± 0.12	1.77 ± 0.034	-0.326 ± 0.0047	1.89 ± 0.045
CGUGAA	-0.546 ± 0.02	1.24 ± 0.057	-0.396 ± 0.0075	1.35 ± 0.099
CGUGAU	-0.47 ± 0.026	1.45 ± 0.057	-0.173 ± 0.018	1.69 ± 0.07
CGUGAC	-0.217 ± 0.012	1.58 ± 0.081	0.0888 ± 0.11	1.74 ± 0.092
CGUGCA	-0.119 ± 0.16	1.68 ± 0.078	0.0822 ± 0.039	1.79 ± 0.1
CGUGCG	-0.833 ± 0.015	1.8 ± 0.02	-0.561 ± 0.012	1.83 ± 0.11
AGGUGA	-0.464 ± 0.029	1.52 ± 0.1	-0.245 ± 0.0095	1.6 ± 0.083
AGUGAA	-0.389 ± 0.095	1.36 ± 0.097	0.0166 ± 0.093	1.54 ± 0.096
AGUGAC	-0.339 ± 0.017	1.63 ± 0.038	-0.00165 ± 0.05	1.77 ± 0.13
AGCCUU	0.0156 ± 0.081	1.712 ± 0.003	0.33 ± 0.038	1.85 ± 0.084
AGCCUA	-0.0368 ± 0.15	1.62 ± 0.011	0.288 ± 0.026	1.8 ± 0.15
CGGCGC	-0.498 ± 0.2	1.8 ± 0.044	-0.494 ± 0.095	1.94 ± 0.069
GUAACG	-0.145 ± 0.033	1.678 ± 0.014	0.124 ± 0.056	1.78 ± 0.14
AGGGAG	-0.66 ± 0.02	1.6 ± 0.05	-0.378 ± 0.013	1.73 ± 0.084
AGUUAG	-0.315 ± 0.053	1.54 ± 0.059	-0.0278 ± 0.059	1.75 ± 0.11
GGUUCC	0.28 ± 0.17	1.8648 ± 0.0011	0.396 ± 0.056	1.96 ± 0.085
UGGUGA	-0.506 ± 0.1	1.57 ± 0.12	-0.257 ± 0.04	1.75 ± 0.1

Variant	FACS-Seq fitted mean (log10) (cyclic di-GMP [1])	normalized RNA/DNA level without ligand (log10) (cyclic di-GMP [2])	FACS-Seq fitted mean (log10) (cyclic di-GMP [3])	normalized RNA/DNA level with ligand (log10) (cyclic di-GMP [4])
CGUCAA	-0.556 ± 0.083	1.31 ± 0.093	-0.352 ± 0.01	1.49 ± 0.13
UGUGAC	0.123 ± 0.24	1.644 ± 0.015	0.27 ± 0.01	1.79 ± 0.082
UGUGAU	-0.736 ± 0.12	1.676 ± 0.012	-0.5759 ± 0.0014	1.81 ± 0.13
AGCUUG	-0.0154 ± 0.14	1.59 ± 0.041	0.223 ± 0.0032	1.81 ± 0.14
GGGGAC	0.068 ± 0.1	1.65 ± 0.027	0.307 ± 0.041	1.8 ± 0.17
UUAAAU	-0.418 ± 0.091	1.711 ± 0.0058	-0.275 ± 0.024	1.86 ± 0.11
UGCUUU	0.0721 ± 0.19	1.73 ± 0.025	0.309 ± 0.091	1.87 ± 0.11
CGCGUA	-0.52 ± 0.06	1.45 ± 0.16	-0.224 ± 0.062	1.638 ± 0.011
AUAACG	-0.0695 ± 0.081	1.58 ± 0.027	0.0722 ± 0.12	1.76 ± 0.12
AGGUCA	-0.483 ± 0.071	1.649 ± 0.0037	-0.219 ± 0.037	1.77 ± 0.14
UGUAAA	0.0683 ± 0.13	1.72 ± 0.019	0.3702 ± 0.0013	1.85 ± 0.086
UGUGGG	-0.327 ± 0.023	1.74 ± 0.03	-0.0766 ± 0.022	1.86 ± 0.12
UGCGAG	-0.503 ± 0.0063	1.7 ± 0.039	-0.177 ± 0.052	1.8 ± 0.081
AGUAGG	-1.02 ± 0.098	1.63 ± 0.097	-0.997 ± 0.068	1.75 ± 0.049
AGUAGU	0.132 ± 0.03	1.64 ± 0.066	0.367 ± 0.029	1.78 ± 0.13
AGUAGA	-0.549 ± 0.05	1.36 ± 0.12	-0.22 ± 0.075	1.56 ± 0.086
AGCUCG	-0.0835 ± 0.12	1.74 ± 0.095	0.217 ± 0.076	1.88 ± 0.039
AGGCAG	-0.6414 ± 0.0033	1.758 ± 0.0064	-0.399 ± 0.084	1.83 ± 0.097
CGCUUU	-0.255 ± 0.035	1.46 ± 0.071	0.0291 ± 0.018	1.69 ± 0.073
CGCUUA	-0.545 ± 0.077	1.27 ± 0.17	-0.264 ± 0.015	1.46 ± 0.036
CGGGUG	-0.608 ± 0.14	1.62 ± 0.026	-0.7531 ± 0.0033	1.82 ± 0.12
CGGGUC	-0.589 ± 0.12	1.81 ± 0.032	-0.527 ± 0.034	1.9 ± 0.057
CGGGUA	-0.076 ± 0.13	1.67 ± 0.023	0.207 ± 0.099	1.75 ± 0.081
UGGAAC	-0.221 ± 0.031	1.64 ± 0.033	0.11 ± 0.0057	1.83 ± 0.075

Variant	FACS-Seq fitted mean (log10) (cyclic di-GMP [1])	normalized RNA/DNA level without ligand (log10) (cyclic di-GMP [2])	FACS-Seq fitted mean (log10) (cyclic di-GMP [3])	normalized RNA/DNA level with ligand (log10) (cyclic di-GMP [4])
UGGAAU	-0.121 ± 0.12	1.57 ± 0.041	0.272 ± 0.075	1.77 ± 0.13
AGGUAU	-0.276 ± 0.0093	1.57 ± 0.046	0.0998 ± 0.21	1.76 ± 0.066
AGGUAA	-0.299 ± 0.023	1.43 ± 0.034	-0.0992 ± 0.054	1.56 ± 0.17
CGUGGA	-0.426 ± 0.029	1.41 ± 0.1	-0.0424 ± 0.071	1.62 ± 0.035
AGGAAG	-0.88 ± 0.017	1.38 ± 0.13	-0.6586 ± 0.0033	1.52 ± 0.13
AGGAAU	-0.199 ± 0.032	1.6 ± 0.042	0.123 ± 0.1	1.76 ± 0.1
AGGAAA	-0.514 ± 0.031	1.33 ± 0.15	-0.185 ± 0.026	1.52 ± 0.1
UGUCCU	-0.0961 ± 0.059	1.7541 ± 0.0017	0.158 ± 0.027	1.89 ± 0.1
CGGAUA	-0.243 ± 0.057	1.19 ± 0.13	0.0478 ± 0.023	1.3 ± 0.1
CGGAUU	-0.623 ± 0.0076	1.4 ± 0.18	-0.3382 ± 0.0012	1.54 ± 0.038
GUAAAG	-0.104 ± 0.13	1.55 ± 0.078	0.22888 ± 7.2e-05	1.74 ± 0.065
GUAAAU	-0.979 ± 0.044	1.6 ± 0.051	-0.774 ± 0.011	1.76 ± 0.084
GUAAAA	-0.251 ± 0.15	1.57 ± 0.024	0.00851 ± 0.01	1.73 ± 0.094
CGGCCA	-0.425 ± 0.033	1.57 ± 0.099	-0.137 ± 0.0032	1.73 ± 0.11
CGUAAU	-0.374 ± 0.0044	1.36 ± 0.17	-0.0343 ± 0.11	1.53 ± 0.093
CGUAAA	-0.605 ± 0.042	1.23 ± 0.081	-0.386 ± 0.039	1.34 ± 0.11
UGGACU	-0.517 ± 0.12	1.69 ± 0.076	-0.118 ± 0.075	1.86 ± 0.045
AGUGCA	-0.382 ± 0.034	1.61 ± 0.046	-0.043 ± 0.018	1.79 ± 0.096
AGUGCC	0.324 ± 0.079	1.82 ± 0.11	0.275 ± 0.078	1.92 ± 0.15
UGGCAU	0.119 ± 0.25	1.66 ± 0.11	0.414 ± 0.038	1.82 ± 0.043
CGGUGU	-0.862 ± 0.11	1.68 ± 0.02	-0.65 ± 0.12	1.88 ± 0.14
CGGUGA	-0.266 ± 0.011	1.4 ± 0.13	0.0909 ± 0.043	1.64 ± 0.12
AGGCUU	0.2 ± 0.22	1.655 ± 0.015	0.371 ± 0.029	1.85 ± 0.1
